Measured values reported in patent publication US20240117030A1 (Pfizer, published 2024).
Residue numbers refer to the chain shown, from its start.

T1: cynomolgus monkey IL-4 (cynomolgus monkey, UniProt P79339 25-153)
T1 construct: mature; also called cy IL-4; cyno IL-4
T1 sequence (looked up): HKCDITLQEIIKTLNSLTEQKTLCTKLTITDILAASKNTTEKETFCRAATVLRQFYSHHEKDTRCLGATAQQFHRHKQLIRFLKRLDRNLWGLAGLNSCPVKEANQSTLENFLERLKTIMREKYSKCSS

T2: human IL-4 (human, UniProt P05112 25-153)
T2 sequence (looked up): T1 sequence (looked up) with K26E, I29V, L33F

T3: human IL-12 (human, UniProt P29459 23-219; P29460 23-328)
T3 sequence (looked up) 1: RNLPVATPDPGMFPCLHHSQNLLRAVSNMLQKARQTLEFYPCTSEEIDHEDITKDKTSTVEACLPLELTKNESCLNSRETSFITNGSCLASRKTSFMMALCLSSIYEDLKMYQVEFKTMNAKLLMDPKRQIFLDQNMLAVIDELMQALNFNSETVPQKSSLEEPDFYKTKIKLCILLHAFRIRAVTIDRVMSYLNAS
T3 sequence (looked up) 2: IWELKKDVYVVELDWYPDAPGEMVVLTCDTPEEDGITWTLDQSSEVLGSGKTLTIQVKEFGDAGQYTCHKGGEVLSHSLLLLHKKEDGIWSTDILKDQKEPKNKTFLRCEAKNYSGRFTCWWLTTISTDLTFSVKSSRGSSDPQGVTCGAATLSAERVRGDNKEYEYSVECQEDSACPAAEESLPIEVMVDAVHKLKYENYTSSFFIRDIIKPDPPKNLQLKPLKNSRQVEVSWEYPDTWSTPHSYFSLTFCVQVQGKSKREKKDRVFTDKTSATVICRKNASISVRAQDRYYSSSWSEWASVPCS

T4: cynomolgus monkey IL-12 (cynomolgus monkey, UniProt A0A2K5V4L8 57-253; G7P6S2 23-328)
T4 sequence (p35): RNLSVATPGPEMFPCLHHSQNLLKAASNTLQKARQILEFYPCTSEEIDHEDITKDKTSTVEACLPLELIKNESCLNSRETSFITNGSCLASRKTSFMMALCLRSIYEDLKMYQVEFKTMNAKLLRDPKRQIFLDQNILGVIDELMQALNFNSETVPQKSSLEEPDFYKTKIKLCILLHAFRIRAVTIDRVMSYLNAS
T4 sequence (p40): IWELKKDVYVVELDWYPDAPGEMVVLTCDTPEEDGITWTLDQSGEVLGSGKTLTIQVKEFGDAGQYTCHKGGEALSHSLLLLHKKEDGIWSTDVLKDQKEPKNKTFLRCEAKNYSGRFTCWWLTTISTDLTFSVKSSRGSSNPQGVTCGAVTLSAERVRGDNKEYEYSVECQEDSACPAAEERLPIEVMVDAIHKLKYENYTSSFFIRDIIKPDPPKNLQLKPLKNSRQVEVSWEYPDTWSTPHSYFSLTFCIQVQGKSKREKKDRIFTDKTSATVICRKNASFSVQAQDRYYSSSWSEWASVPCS

T5: human IL-23 (human, UniProt Q9NPF7 20-189; P29460 23-328)
T5 sequence (looked up) 1: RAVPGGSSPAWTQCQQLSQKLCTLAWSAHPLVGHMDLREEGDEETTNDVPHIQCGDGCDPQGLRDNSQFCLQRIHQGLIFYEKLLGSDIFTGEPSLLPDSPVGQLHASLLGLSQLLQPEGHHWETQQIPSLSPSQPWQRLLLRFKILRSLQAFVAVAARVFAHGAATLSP
T5 sequence (looked up) 2: T3 sequence (looked up) 2

T6: human IL-12 (p35 + p40) (human, UniProt P29459 23-219; P29460 23-328)
T6 sequence (looked up) 1: T3 sequence (looked up) 1
T6 sequence (looked up) 2: T3 sequence (looked up) 2

B1: IL413P40-0705 (trispecific antibody)
heavy: EVQLVQSGAEVKKPGESLKISCKGSGYSFTTYWLGWVRQMPGKGLDWIGIMSPVDSDIRYSPSFQGQVTMSVDKSITTAYLQWNSLKASDTAMYYCARRRPGQGYFDFWGQGTLVTVSSASTKGPSVFPLAPSSKSTSGGTAALGCLVKDYFPEPVTVSWNSGALTSGVHTFPAVLQSSGLYSLSSVVTVPSSSLGTQTYICNVNHKPSNTKVDKKVEPKSCRKTHTCPPCPAPEAAGAPSVFLFPPKPKDTLMISRTPEVTCVVVDVSHEDPEVKFNWYVDGVEVHNAKTKPREEQYNSTYRVVSVLTVLHQDWLNGKEYKCKVSNKALPAPIEKTISKAKGQPREPQVYTLPPSREEMTKNQVSLTCLVKGFYPSDIAVEWESNGQPENNYKTTPPVLDSDGSFFLYSRLTVDKSRWQQGNVFSCSVLHEALHSHYTQKSLSLSPGK
chain 1: DIQMTQSPSSLSASVGDRVTITCKASESVDHFGWSLVHWYQQKPGKAPKLLIYRASNLESGVPSRFSGSGSGTDFTLTISSLQPEDFATYYCQQSNEDPWTFGGGTKVEIKRTVAAPSVFIFPPSDEQLKSGTASVVCLLNNFYPREAKVQWKVDNALQSGNSQESVTEQDSKDSTYSLSSTLTLSKADYEKHKVYACEVTHQGLSSPVTKSFNRGECGGGGSEVTLRESGPALVKPTQTLTLTCTFSGFSLSNFGEGLSWIRQPPGKGLEWLAHIYWDDDKRYNPSLKSRLTISKDTSRNQVVLTMTNMDPVDTATYYCARRETVFYWYFDVWGQGTTVTVSSASTKGPSVFPLAPSSKSTSGGTAALGCLVKDYFPEPVTVSWNSGALTSGVHTFPAVLQSSGLYSLSSVVTVPSSSLGTQTYICNVNHKPSNTKVDKKVEPKSCEKTHTCPPCPAPEAAGAPSVFLFPPKPKDTLMISRTPEVTCVVVDVSHEDPEVKFNWYVDGVEVHNAKTKPREEQYNSTYRVVSVLTVLHQDWLNGKEYKCKVSNKALPAPIEKTISKAKGQPREPQVYTLPPSREEMTKNQVSLTCEVKGFYPSDIAVEWESNGQPENNYKTTPPVLDSDGSFFLYSKLTVDKSRWQQGNVFSCSVLHEALHSHYTQKSLSLSPGK
light 1: not shown
light 2: DIQMTQSPSSLSASVGDRVTITCRASQSVDEEGDSYMNWYQQKPGKAPKLLIYAASNLESGVPSRFSGSGSGTDFTLTISSLQPEDFATYYCQQSNKDPPTFGGGTKVEIKRTVAAPSVFIFPPSDEQLKSGTASVVCLLNNFYPREAKVQWKVDNALQSGNSQESVTEQDSKDSTYSLSSTLTLSKADYEKHKVYACEVTHQGLSSPVTKSFNRGEC
chain 2: EVQLVESGGGLVQPGGSLRLSCAASGFTFSSYAMSWVRQAPGKGLEWVASISSGDTTYYPDSVKGRFTISRDNAKNSLYLQMNSLRAEDTAVYYCARNEGYYFGLTLWGQGTLVTVSSASTKGPSVFPLAPSSKSTSGGTAALGCLVKDYFPEPVTVSWNSGALTSGVHTFPAVLQSSGLYSLSSVVTVPSSSLGTQTYICNVNHKPSNTKVDKKVEPKSC
notes: EE/RR, LS; also called IL134P40-0705; Tri-Fab-Fc IL413p40-0705
B2: p40-0003 (antibody, human IgG1, kappa, V domains shown)
VH: EVQLVQSGAEVKKPGESLKISCKGSGYSFTTYWLGWVRQMPGKGLDWIGIMSPVDSDIRYSPSFQGQVTMSVDKSITTAYLQWNSLKASDTAMYYCARRRPGQGYFDFWGQGTLVTVSS
VL: DIQMTQSPSSLSASVGDRVTITCRASQGISSWLAWYQQKPEKAPKSLIYAASSLQSGVPSRFSGSGSGTDFTLTISSLQPEDFATYYCQQYNIYPYTFGQGTKLEIKR

How the values were obtained:
cynomolgus monkey IL-4 = target: T1, cynomolgus monkey IL-4; assay: KinExA, fixed antigen
Experimental: Samples were prepared in PBS containing 0.1% sodium azide and 1.0 mg/ml BSA. The fixed antigen assay method was used to determine binding affinity. […] Each trispecific and IL-4 cytokine were equilibrated for at least 72 hours at room temperature, then passed through a flow cell containing Polymethylmethacrylate (PMMA) beads coated with anti-hIL-4 Ab-0002 (Pfizer) that contains the same IL-4 binding domain as the trispecifics. […] Data analysis was performed with KinExA Pro software version 4.3.11 (Sapidyne). […] The ‘drift correction’ fitting option was used when responses varied between replicate injections. Two curves were obtained in independent experiments and analyzed using the ‘n-curve analysis’ tool to obtain global best fit values for the KD and active concentration of IL-4 cytokine. The software reports each best fit value along with a 95% confidence interval.
Samples were prepared in PBS containing 0.1% sodium azide and 1.0 mg/ml BSA. A fixed antigen assay method was used to determine binding affinity.

human IL-4 = target: T2, human IL-4; assay: cell-based or functional assay
human IL-12 = target: T3, human IL-12; assay: cell-based or functional assay
cynomolgus monkey IL-12 = target: T4, cynomolgus monkey IL-12; assay: cell-based or functional assay
human IL-23 = target: T5, human IL-23; assay: cell-based or functional assay
human IL-13 = human IL-13 (human, UniProt P35225 35-146); assay: cell-based or functional assay
cynomolgus monkey IL-13 = cynomolgus monkey IL-13 (cynomolgus monkey, UniProt Q0PW92 19-132); assay: cell-based or functional assay
cynomolgus monkey IL-23 = cynomolgus monkey IL-23 (cynomolgus monkey, UniProt H6WS56 20-189); assay: cell-based or functional assay
human IL-12 (p35 + p40) = target: T6, human IL-12 (p35 + p40); assay: cell-based or functional assay

human IL-13, sequence (P35225 35-146 limits assumed, form in doubt): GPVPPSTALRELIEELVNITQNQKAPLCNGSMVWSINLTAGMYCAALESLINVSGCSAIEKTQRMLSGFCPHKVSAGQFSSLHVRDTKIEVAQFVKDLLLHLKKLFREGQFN
cynomolgus monkey IL-13, sequence (Q0PW92 entry or part of it limits assumed): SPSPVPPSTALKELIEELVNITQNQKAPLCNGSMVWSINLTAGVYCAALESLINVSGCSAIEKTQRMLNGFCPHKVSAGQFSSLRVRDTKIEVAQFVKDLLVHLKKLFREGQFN

Row | Binder | fold of the human IL-4 affinity value (cynomolgus monkey IL-4) [fold] | fold IL-4 neutralization activity over dupilumab (monocyte CD23 bioassay) (human IL-4) [fold] | fold lower potency than mAb IL4-1040 (monocyte CD23 bioassay) (human IL-4) [fold] | fold less potent than p40-0003, Kit-225 pSTAT4 assay (human IL-12) [fold] | fold less potent than p40-0003, whole blood pSTAT4 assay (human IL-12) [fold] | fold difference in potency between human and cynomolgus monkey IL-12, Kit-225 assay (cynomolgus monkey IL-12) [fold] | fold less potent than p40-0003, Kit-225 pSTAT3 assay (human IL-23) [fold] | fold less potent than p40-0003, whole blood pSTAT3 assay (human IL-23) [fold] | fold IL-13 neutralization activity over dupilumab (monocyte CD23 bioassay) (human IL-13) [fold] | fold lower potency than IL13-0001 (monocyte CD23 bioassay) (human IL-13) [fold] | fold reduced neutralization compared to the human cytokine (monocyte CD23 bioassay) (cynomolgus monkey IL-13) [fold] | fold difference in potency between human and cynomolgus monkey IL-23, Kit-225 assay (cynomolgus monkey IL-23) [fold] | anti-IL12 bioassay IC50 (human IL-12 (p35 + p40)) [nM]
1 | B1 | ≤ 1.2 | ~10 | ~3.2 | 2.9 | 1.5 | < 2 | 2.6 | 2.4 | 8.9 | ~2.4 | ~4 | < 2 | –
2 | B2 | – | – | – | – | – | – | – | – | – | – | – | – | 0.286
